In paper PMC10180619 (Nature Communications, 2023) one finds Kd data, which are given here for one molecule.

The target in this test is T1, SARS-CoV-2 WT (Wuhan-1) receptor binding domain (SARS-CoV-2, Wuhan-Hu-1, UniProt P0DTC2, biotin (EZ-Link Sulfo-NHS-LC-Biotin, average of four biotins per RBD molecule)).
T1 construct: source: bought: Acro Biosystems (Cat #SPD-C52H3)
The test can be described thus: BLI. The following applies: both partners purified.

B1: ADI-81654 (Fab, V domains shown)
VH: QVQLKQSGPTLVKPTQTLTLTCTFSGFSLSTYGVGVGWIRQPPGKALEWLALIYYDDDKRYSPSLKSRLTITKDTSQNQVVLTMTNMDPVDTATYYCARHTIATIFDFDSWGQGTLVTVSS
VL: QSVLTQPASVSGSPGQSITISCTGTSSDVGGHNYVSWYQQHPGKAPKLMIYEVSNRPSGVSNRFSGSKSGNTASLTISGLQAEDEADYSCSSYASSTSPVVFGGVTKLTVL
In turn, B1 gave a Kd of 56 nM.

For orientation: Kd means a measure of binding affinity in units of concentration. Low values mean tighter binding, high ones weaker binding.
